Measurements as given in patent US11278600B2, “Human alpha-galactosidase variants” (Codexis, Inc., priority 2014, dated 2022).
Where a chain is given by its changes, count along the chain named.

B1: 184 (protein)
chain: LDNGLARTPTMGWLHWERFMCNLDCQEEPDSCISEKLFMEMAELMVSEGWKDAGYEYLCIDDCWMAPQRDSEGRLQADPQRFPHGIRQLANYVHSKGLKLGIYADVGNKTCAGFPGSFGYYDIDAQTFADWGVDLLKFDGCYCDSLENLADGYKHMSLALNRTGRSIAYSCEWPLYMWPFQKPNYTEIRQYCNHWRNFADIDDSWKSIKSILDWTSFNQERIVDVAGPGGWNDPDMLVIGNFGLSWNQQVTQMALWAIMAAPLFMSNDLRHISPQAKALLQDKDVIAINQDPLGKQGYQLRQGDNFEVWERPLSGLAWAVAMINRQEIGGPRSYTIAVASLGKGVACNPACFITQLLPVKRKLGFYEWTSRLRSHINPTGTVLLQLENTMQMSKDLLL
modifications: Synthetic Polypeptide sequence of Variant No. 184 of mature Human GLA
B2: 42 (protein)
chain: B1 chain with A168V, E367N
modifications: Synthetic Polypeptide sequence of Variant No. 42 of mature Human GLA
B3: 190 (protein)
chain: B1 chain with A168V, W178H
modifications: Synthetic Polypeptide sequence of Variant No. 190 of mature Human GLA
B4: 40 (protein)
chain: B1 chain with A168V, L396R
modifications: Synthetic Polypeptide sequence of Variant No. 40 of mature Human GLA
B5: 43 (protein)
chain: B1 chain with A168V, E367T
modifications: Synthetic Polypeptide sequence of Variant No. 43 of mature Human GLA
B6: 191 (protein)
chain: B1 chain with A168V, W178S
modifications: Synthetic Polypeptide sequence of Variant No. 191 of mature Human GLA
B7: 189 (protein)
chain: B1 chain with V93I, A168V
modifications: Synthetic Polypeptide sequence of Variant No. 189 of mature Human GLA
B8: 185 (protein)
chain: B1 chain with A168L
modifications: Synthetic Polypeptide sequence of Variant No. 185 of mature Human GLA
B9: 187 (protein)
chain: B1 chain with A168V, V345Y
modifications: Synthetic Polypeptide sequence of Variant No. 187 of mature Human GLA
B10: 186 (protein)
chain: B1 chain with A168V, V345N
modifications: Synthetic Polypeptide sequence of Variant No. 186 of mature Human GLA
B11: 41 (protein)
chain: B1 chain with A168V, L396T
modifications: Synthetic Polypeptide sequence of Variant No. 41 of mature Human GLA
B12: 188 (protein)
chain: B1 chain with A168V, V359E
modifications: Synthetic Polypeptide sequence of Variant No. 188 of mature Human GLA

Assay: HTP-analysis of yeast culture supernatants, no challenge (MUGal hydrolysis)
Format: biochemical
Conditions: activity of the variant/activity of WT GLA (SEQ ID NO: 5), yeast supernatant
Summary of the method: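 GLA variants were expressed in INVSc1 yeast grown in SD-Ura broth with glucose at 30° C., and culture supernatants were collected after 66-84 h. Supernatant was mixed with McIlvaine buffer pH 4.8 and MUGal (2 mM stock) in 50 mM citrate, 200 mM KCl, pH 4.6, incubated at 37° C. for 30-180 minutes, then quenched with sodium carbonate.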

Molecule | Relative Activity of GLA Variants After No Challenge (NC)
B1 | ++ (++ = >1.5 to 2.5 relative activity over WT GLA (SEQ ID NO: 5))
B2 | +++ (+++ = >2.5 relative activity over WT GLA (SEQ ID NO: 5))
B3 | ++ (++ = >1.5 to 2.5 relative activity over WT GLA (SEQ ID NO: 5))
B4 | ++ (++ = >1.5 to 2.5 relative activity over WT GLA (SEQ ID NO: 5))
B5 | + (+ = 0.5 to 1.5 relative activity over WT GLA (SEQ ID NO: 5))
B6 | + (+ = 0.5 to 1.5 relative activity over WT GLA (SEQ ID NO: 5))
B7 | + (+ = 0.5 to 1.5 relative activity over WT GLA (SEQ ID NO: 5))
B8 | + (+ = 0.5 to 1.5 relative activity over WT GLA (SEQ ID NO: 5))
B9 | + (+ = 0.5 to 1.5 relative activity over WT GLA (SEQ ID NO: 5))
B10 | ++ (++ = >1.5 to 2.5 relative activity over WT GLA (SEQ ID NO: 5))
B11 | + (+ = 0.5 to 1.5 relative activity over WT GLA (SEQ ID NO: 5))
B12 | + (+ = 0.5 to 1.5 relative activity over WT GLA (SEQ ID NO: 5))

Assay: HTP-analysis of supernatants pretreated with acid (MUGal hydrolysis)
Format: biochemical
Conditions: challenge at pH 4.2; activity of the variant/activity of WT GLA (SEQ ID NO: 5); yeast supernatant
Summary of the method: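 GLA variants were secreted from INVSc1 yeast grown 66-84 h at 30° C. in SD-Ura with 2% glucose; supernatants were mixed with McIlvaine buffer pH 3.3-4.3 and held at 37° C. for 1-3 h. Residual activity on MUGal at pH 4.8 was then measured by fluorescence.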

Molecule | Relative Activity of GLA Variants After Challenge at pH 4.2
B1 | + (+ = 0.5 to 1.5 relative activity over WT GLA (SEQ ID NO: 5))
B2 | +++ (+++ = >2.5 relative activity over WT GLA (SEQ ID NO: 5))
B3 | + (+ = 0.5 to 1.5 relative activity over WT GLA (SEQ ID NO: 5))
B4 | ++ (++ = >1.5 to 2.5 relative activity over WT GLA (SEQ ID NO: 5))
B5 | + (+ = 0.5 to 1.5 relative activity over WT GLA (SEQ ID NO: 5))
B6 | ++ (++ = >1.5 to 2.5 relative activity over WT GLA (SEQ ID NO: 5))
B7 | + (+ = 0.5 to 1.5 relative activity over WT GLA (SEQ ID NO: 5))
B8 | ++ (++ = >1.5 to 2.5 relative activity over WT GLA (SEQ ID NO: 5))
B9 | + (+ = 0.5 to 1.5 relative activity over WT GLA (SEQ ID NO: 5))
B10 | ++ (++ = >1.5 to 2.5 relative activity over WT GLA (SEQ ID NO: 5))
B11 | + (+ = 0.5 to 1.5 relative activity over WT GLA (SEQ ID NO: 5))
B12 | + (+ = 0.5 to 1.5 relative activity over WT GLA (SEQ ID NO: 5))

Assay: HTP-analysis of supernatants pretreated with base (MUGal hydrolysis)
Format: biochemical
Conditions: challenge at pH 7.1; activity of the variant/activity of WT GLA (SEQ ID NO: 5); yeast supernatant
Summary of the method: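 GLA variants were secreted by transformed INVSc1 yeast grown 66-84 h at 30° C. Supernatants were exposed to neutral-to-basic buffers (pH 7.0-9.7) at 37° C for 1-18 h, then assayed with MUGal in acidic citrate/McIlvaine buffer, with fluorescence read after quenching.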

Molecule | Relative Activity of GLA Variants After Challenge at pH 7.1
B1 | + (+ = 0.5 to 1.5 relative activity over WT GLA (SEQ ID NO: 5))
B2 | +++ (+++ = >2.5 relative activity over WT GLA (SEQ ID NO: 5))
B3 | ++ (++ = >1.5 to 2.5 relative activity over WT GLA (SEQ ID NO: 5))
B4 | ++ (++ = >1.5 to 2.5 relative activity over WT GLA (SEQ ID NO: 5))
B5 | + (+ = 0.5 to 1.5 relative activity over WT GLA (SEQ ID NO: 5))
B6 | + (+ = 0.5 to 1.5 relative activity over WT GLA (SEQ ID NO: 5))
B7 | + (+ = 0.5 to 1.5 relative activity over WT GLA (SEQ ID NO: 5))
B8 | + (+ = 0.5 to 1.5 relative activity over WT GLA (SEQ ID NO: 5))
B9 | + (+ = 0.5 to 1.5 relative activity over WT GLA (SEQ ID NO: 5))
B10 | +++ (+++ = >2.5 relative activity over WT GLA (SEQ ID NO: 5))
B11 | + (+ = 0.5 to 1.5 relative activity over WT GLA (SEQ ID NO: 5))
B12 | + (+ = 0.5 to 1.5 relative activity over WT GLA (SEQ ID NO: 5))
